The values that follow come from patent US20130236944A1, “METHODS FOR THE INACTIVATION OF ANTIBIOTICS” (priority 2011, published 2013).

This test in a line: Inactivation of amoxicillin by lipases. The class given is biochemical, Bacillus subtilis. Conditions: in 168 h, antibiotic 5.15 μg/, approximately 20° C. How it is done: The plates are incubated 18 hours at 37° C.
In this example, the indicator bacterial strains sensitive to beta-lactam antibiotics (e.g. amoxicillin) and macrolide antibiotics were Bacillus subtilis (CIP 52.62) and Micrococcus luteus (CIP 53.45) respectively. All inactivation studies were performed with final antibiotic concentrations of 5.15 μg/. Lipases were used at final concentrations of 2.5 mg/mL (referred as ‘High concentration’) and 0.5 mg/mL (referred as ‘Low concentration’); they were obtained from Codexis.

B1: Lipase from Pseudomonas cepacia P1: Lipase from Pseudomonas cepacia (also called Bulkholderia cepacia) P1, obtained from Codexis (protein, UniProt P22088 45-364, looked up)
Triacylglycerol lipase: AAGYAATRYPIILVHGLSGTDKYAGVLEYWYGIQEDLQQNGATVYVANLSGFQSDDGPNGRGEQLLAYVKTVLAATGATKVNLVGHSQGGLSSRYVAAVAPDLVASVTTIGTPHRGSEFADFVQDVLAYDPTGLSSSVIAAFVNVFGILTSSSHNTNQDALAALQTLTTARAATYNQNYPSAGLGAPGSCQTGAPTETVGGNTHLLYSWAGTAIQPTLSVFGVTGATDTSTLPLVDPANVLDLSTLALFGTGTVMINRGSGQNDGLVSKCSALYGKVLSTSYKWNHLDEINQLLGVRGAYAEDPVAVIRTHANRLKLAGV
Take B1: the Amoxicillin inactivation entry is reported as “+++ in 168 h (100% inactivation = the residual concentration of antibiotic is smaller than the limit of detection of the microbiological test)” (enzyme H (High concentration, 2.5 mg/mL)) and “+++ in 168 h (100% inactivation = the residual concentration of antibiotic is smaller than the limit of detection of the microbiological test)” (enzyme L (Low concentration, 0.5 mg/mL)).
